In article PMC9584538 (Cell reports, 2022):
Substitutions are numbered along the chain they refer to. In names and notes the source's numbering stands. Several values for one entry are separate records, joined by “and”; a condition that tells them apart may be missing. Equal values may be shown once. Read-outs that look alike come from different tables or passages of the source. Values belong to the molecule of their own block, whether it stands above or below them.

Experiments:
PARLSkd3 (human CLPB) = molecular target: T1, PARLSkd3 (human CLPB) (Homo sapiens, UniProt Q9H078); type: biochemical
T1 sequence (Q9H078 127-707): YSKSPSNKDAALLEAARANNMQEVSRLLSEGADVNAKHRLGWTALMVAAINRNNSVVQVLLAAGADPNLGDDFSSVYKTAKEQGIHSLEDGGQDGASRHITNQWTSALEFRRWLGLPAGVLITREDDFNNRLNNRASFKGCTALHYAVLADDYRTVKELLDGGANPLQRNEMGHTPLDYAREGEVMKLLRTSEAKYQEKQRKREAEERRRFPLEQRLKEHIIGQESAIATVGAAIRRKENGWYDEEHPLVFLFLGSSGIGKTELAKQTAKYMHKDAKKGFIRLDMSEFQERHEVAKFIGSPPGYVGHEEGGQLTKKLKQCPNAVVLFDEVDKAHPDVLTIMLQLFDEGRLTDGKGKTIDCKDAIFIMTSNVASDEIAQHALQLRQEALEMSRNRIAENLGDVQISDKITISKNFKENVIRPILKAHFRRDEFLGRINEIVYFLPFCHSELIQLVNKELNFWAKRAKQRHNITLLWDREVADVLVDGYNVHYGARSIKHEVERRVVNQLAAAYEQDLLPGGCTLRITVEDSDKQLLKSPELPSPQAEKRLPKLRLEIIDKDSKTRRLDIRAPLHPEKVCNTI

[1] = molecular target: _(PARL)Skd3^Δ1-2 (ankyrin repeats 1 and 2 deleted, ΔY127-G196) (human); experiment: cryo-EM structure
[2] = molecular target: _(PARL)Skd3^Δ1-2 (ankyrin repeats 1 and 2 deleted, ΔY127-G196) (human); experiment: SEC
_(PARL)Skd3^NBD (human) = experiment: cryo-EM structure
[3] = molecular target: Casein fluorescein isothiocyanate from bovine milk (FITC-casein) (bovine); experiment: fluorescence polarisation
Sequence of Casein fluorescein isothiocyanate from bovine milk (FITC-casein) (bovine) (P02662 16-214): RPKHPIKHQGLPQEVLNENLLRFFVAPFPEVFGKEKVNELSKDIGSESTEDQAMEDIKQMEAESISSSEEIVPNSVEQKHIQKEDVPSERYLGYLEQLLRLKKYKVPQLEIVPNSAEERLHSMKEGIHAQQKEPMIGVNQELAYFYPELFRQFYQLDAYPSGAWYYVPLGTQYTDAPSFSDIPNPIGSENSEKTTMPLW

[4] = molecular target: Casein fluorescein isothiocyanate from bovine milk (FITC-casein) (bovine); experiment: fluorescence polarisation; remark: listed apart in the source
[5] = molecular target: Casein fluorescein isothiocyanate from bovine milk (FITC-casein) (bovine); experiment: fluorescence polarisation; remark: listed apart in the source
SEC [6] = molecular target: the molecule itself; experiment: SEC
[7] = molecular target: T2, PARL-protease-activated Skd3 (human CLPB), wild type (human, UniProt Q9H078 127-707); experiment: FRET or BRET
T2 sequence (looked up): T1 sequence (Q9H078 127-707)

SEC [8] = molecular target: the molecule itself; experiment: SEC; remark: listed apart in the source

IC50 (PARLSkd3 (human CLPB)): ~1200 µM
Molecule: Nc1ncnc2c1ncn2[C@@H]1O[C@H](COP(=O)(O)OP(=O)(O)O)[C@@H](O)[C@H]1O [ADP]

stoichiometry N [1]: 18
stoichiometry N [2]: 12
Molecule: _(PARL)Skd3^Δ1-2 (ankyrin repeats 1 and 2 deleted, ΔY127-G196) (enzyme)

stoichiometry N (_(PARL)Skd3^NBD (human)): 6
Molecule: _(PARL)Skd3^NBD (domain or fragment)

IC50 (PARLSkd3 (human CLPB)): ~242 µM
Molecule: Nc1ncnc2c1ncn2[C@@H]1O[C@H](CO[P@](=O)(O)O[P@](=O)(O)O[P@@](=O)(O)S)[C@@H](O)[C@H]1O [ATPγS]

Kd [3]: 0.4 µM
Kd [4]: 0.1 µM
Kd [5]: 0.5 µM
B1: PARL-protease-activated Skd3 (human CLPB), wild type (enzyme)
chain: T1 sequence (Q9H078 127-707)

binding result [7]: binds
B2: _(PARL)Skd3^R408G (MGCA7-linked variant) (enzyme, human, UniProt Q9H078 127-707, looked up)
chain: T1 sequence (Q9H078 127-707) with R282G
stoichiometry N (SEC [6]): 12

binding result [7]: binds
B3: _(PARL)Skd3^N496K (SCN-linked variant, sensor-1) (enzyme, human, UniProt Q9H078 127-707, looked up)
chain: T1 sequence (Q9H078 127-707) with N370K
stoichiometry N (SEC [6]): 6

binding result [7]: binds
B4: _(PARL)Skd3^R561G (SCN-linked variant, Arg finger) (enzyme, human, UniProt Q9H078 127-707, looked up)
chain: T1 sequence (Q9H078 127-707) with R435G
stoichiometry N (SEC [6]): 12

binding result [7]: binds
B5: _(PARL)Skd3^R620C (SCN-linked variant, sensor-2) (enzyme, human, UniProt Q9H078 127-707, looked up)
chain: T1 sequence (Q9H078 127-707) with R494C
stoichiometry N (SEC [6]): 12

binding result [7]: binds
B6: _(PARL)Skd3^K387A (Walker A) (enzyme, human, UniProt Q9H078 127-707, looked up)
chain: T1 sequence (Q9H078 127-707) with K261A

binding result [7]: binds
B7: _(PARL)Skd3^R475Q (MGCA7-linked variant) (enzyme, human, UniProt Q9H078 127-707, looked up)
chain: T1 sequence (Q9H078 127-707) with R349Q
stoichiometry N (SEC [6]): 12

binding result [7]: binds
B8: _(PARL)Skd3^A591V (MGCA7-linked variant) (enzyme, human, UniProt Q9H078 127-707, looked up)
chain: T1 sequence (Q9H078 127-707) with A465V
stoichiometry N (SEC [6]): 6 and 12

B9: _(PARL)Skd3^ΔL507-I534 (NBD insertion deleted) (enzyme, human, UniProt Q9H078 127-707, looked up)
chain: YSKSPSNKDAALLEAARANNMQEVSRLLSEGADVNAKHRLGWTALMVAAINRNNSVVQVLLAAGADPNLGDDFSSVYKTAKEQGIHSLEDGGQDGASRHITNQWTSALEFRRWLGLPAGVLITREDDFNNRLNNRASFKGCTALHYAVLADDYRTVKELLDGGANPLQRNEMGHTPLDYAREGEVMKLLRTSEAKYQEKQRKREAEERRRFPLEQRLKEHIIGQESAIATVGAAIRRKENGWYDEEHPLVFLFLGSSGIGKTELAKQTAKYMHKDAKKGFIRLDMSEFQERHEVAKFIGSPPGYVGHEEGGQLTKKLKQCPNAVVLFDEVDKAHPDVLTIMLQLFDEGRLTDGKGKTIDCKDAIFIMTSNVASDEIAQHATISKNFKENVIRPILKAHFRRDEFLGRINEIVYFLPFCHSELIQLVNKELNFWAKRAKQRHNITLLWDREVADVLVDGYNVHYGARSIKHEVERRVVNQLAAAYEQDLLPGGCTLRITVEDSDKQLLKSPELPSPQAEKRLPKLRLEIIDKDSKTRRLDIRAPLHPEKVCNTI
stoichiometry N (SEC [8]): 12

B10: _(PARL)Skd3^Δ3-4 (ankyrin repeats 3 and 4 deleted, ΔS263-K325) (enzyme, human, UniProt Q9H078 127-707, looked up)
chain: YSKSPSNKDAALLEAARANNMQEVSRLLSEGADVNAKHRLGWTALMVAAINRNNSVVQVLLAAGADPNLGDDFSSVYKTAKEQGIHSLEDGGQDGASRHITNQWTSALEFRRWLGLPAGVLITREDDFNNRLNNRAQRKREAEERRRFPLEQRLKEHIIGQESAIATVGAAIRRKENGWYDEEHPLVFLFLGSSGIGKTELAKQTAKYMHKDAKKGFIRLDMSEFQERHEVAKFIGSPPGYVGHEEGGQLTKKLKQCPNAVVLFDEVDKAHPDVLTIMLQLFDEGRLTDGKGKTIDCKDAIFIMTSNVASDEIAQHALQLRQEALEMSRNRIAENLGDVQISDKITISKNFKENVIRPILKAHFRRDEFLGRINEIVYFLPFCHSELIQLVNKELNFWAKRAKQRHNITLLWDREVADVLVDGYNVHYGARSIKHEVERRVVNQLAAAYEQDLLPGGCTLRITVEDSDKQLLKSPELPSPQAEKRLPKLRLEIIDKDSKTRRLDIRAPLHPEKVCNTI
stoichiometry N (SEC [8]): 12

B11: _(PARL)Skd3^ΔL (ANK linker deleted, ΔD197-A262) (enzyme, human, UniProt Q9H078 127-707, looked up)
chain: YSKSPSNKDAALLEAARANNMQEVSRLLSEGADVNAKHRLGWTALMVAAINRNNSVVQVLLAAGADPNLGSFKGCTALHYAVLADDYRTVKELLDGGANPLQRNEMGHTPLDYAREGEVMKLLRTSEAKYQEKQRKREAEERRRFPLEQRLKEHIIGQESAIATVGAAIRRKENGWYDEEHPLVFLFLGSSGIGKTELAKQTAKYMHKDAKKGFIRLDMSEFQERHEVAKFIGSPPGYVGHEEGGQLTKKLKQCPNAVVLFDEVDKAHPDVLTIMLQLFDEGRLTDGKGKTIDCKDAIFIMTSNVASDEIAQHALQLRQEALEMSRNRIAENLGDVQISDKITISKNFKENVIRPILKAHFRRDEFLGRINEIVYFLPFCHSELIQLVNKELNFWAKRAKQRHNITLLWDREVADVLVDGYNVHYGARSIKHEVERRVVNQLAAAYEQDLLPGGCTLRITVEDSDKQLLKSPELPSPQAEKRLPKLRLEIIDKDSKTRRLDIRAPLHPEKVCNTI
stoichiometry N (SEC [8]): 12 and 6
